Test results published in US20190177400A1, “BIOLOGICAL UPGRADING OF HYDROCARBON STREAMS WITH NICKEL-BINDING PROTEINS” (ExxonMobil Research and Engineering Company, priority 2017, published 2019).
Read-outs that look alike come from different tables or passages of the source.

Columns and labels:
[1] = UV-VIS screening of binding and demetallation of Ni(II)-protoporphyrin (IX); assay type: biochemical; settings: 50 μM porphyrin, 24 hrs, room temperature
Method: (§1) Three nickel- and one vanadium-containing model porphyrins (Ni(II)-protoporphyrin (IX); Ni(II)-meso-tetra-(4-carboxyphenyl) porphine; Ni(II)-meso-tetra-(N-methyl-4-pyridyl) porphine tetrachloride; & VO-meso-tetra-(N-methyl-4-pyridyl) porphine tetrachloride) were chosen as test substrates for the eight representative NBPs. […] The proteins' nickel- and vanadium-binding capabilities were assayed in a single phase, aqueous environment to eliminate mass transfer limitations that occur between multiple phases and stressful non-aqueous to conditions that may change protein structure and/or inhibit function. This approach minimizes false-negative results to maximize the number of potential protein candidates that can be identified.
A shift in the wavelength of maximal absorbance, commonly referred to as the “Soret band,” indicates a change in porphyrin conformation or a protein-porphyrin interaction.
(§2) To prepare crude protein, aliquots were thawed on ice and diluted 4-fold with protein assay buffer (PAB). To isolate purified nickel-binding proteins, protein aliquots were thawed on ice and proteins of interest were purified by HIS-tag-Ni-NTA column affinity followed by size exclusion chromatography with PD-10 desalting columns. Purified protein was eluted in PAB, collected in the first 2 mL PD-10 column flow-through fraction. Relative to the initial protein concentration, samples were diluted 4-fold to parallel crude protein samples.
(§3) Amber tubes were used for all assays to protect samples from light. Crude and purified protein samples were combined with porphyrin substrates, to achieve final concentrations in Table 3, and total assay volumes were raised to 10 mL with Tris buffer. Absorbance of a 2.4 mL sample was measured in a 1 cm quartz cuvette, at room temperature, 1 nm resolution, and 0.7 sec. integration time on an Evolution201® UV-VIS spectrophotometer with Thermo INSIGHT® software. Samples were incubated for 24 hrs. at room temperature and 75 RPM and their final UV-VIS absorbance spectra was measured. An absorbance baseline was collected using Tris buffer at the beginning of each time point and 1% error was observed between technical replicates.
(§4) Porphyrin Demetallation Calculation was calculated according to the formula (EVf−EXPf)÷EVo=% specific demetallation.

[2] = UV-VIS screening of binding and demetallation of Ni(II)-meso-tetra-(4-carboxyphenyl) porphine; assay type: biochemical; settings: 10 μM porphyrin, 24 hrs
Method: as §1
UV-VIS spectroscopy was used for initial screening of protein activity against numerous model compounds because each model porphyrin has a characteristic UV-VIS absorbance spectrum. A shift in the wavelength of maximal absorbance, commonly referred to as the “Soret band,” indicates a change in porphyrin conformation or a protein-porphyrin interaction.
as §2
as §3, with “replicates. Crude, empty pET28b vector (EV) strain lysate protein and PAB only controls were run in parallel with experimental samples (EXP) for each porphyrin.” for “replicates.”
as §4

[3] = cited from earlier work
[4] = UV-VIS screening of binding and demetallation of VO-meso-tetra-(N-methyl-4-pyridyl) porphine tetrachloride; assay type: biochemical; settings: crude and purified protein, 10 μM porphyrin, 24 hrs
Method: as §1, with “This approach minimizes false-negative results to maximize the number of potential protein candidates that can be identified.” left out
(§5) UV-VIS spectroscopy was used for initial screening of protein activity against numerous model compounds because each model porphyrin has a characteristic UV-VIS absorbance spectrum. A shift in the wavelength of maximal absorbance, commonly referred to as the “Soret band,” indicates a change in porphyrin conformation or a protein-porphyrin interaction. […]
(§6) Amber tubes were used for all assays to protect samples from light. […] Absorbance of a 2.4 mL sample was measured in a 1 cm quartz cuvette, at room temperature, 1 nm resolution, and 0.7 sec. integration time on an Evolution201® UV-VIS spectrophotometer with Thermo INSIGHT® software. Samples were incubated for 24 hrs. at room temperature and 75 RPM and their final UV-VIS absorbance spectra was measured. […]

[5] = UV-VIS screening of binding and demetallation of Ni(II)-meso-tetra-(N-methyl-4-pyridyl) porphine tetrachloride; assay type: biochemical; settings: crude and purified protein, 10 μM porphyrin, 24 hrs
Method: as §1, with “This approach minimizes false-negative results to maximize the number of potential protein candidates that can be identified.” left out
as §5, §6

[6] = selective, repetitive treatment; cited from earlier work
[7] = site (24-His rich N-terminus; His2 and Glu2; micromolar Kd sites)

Molecule	reduction of Ni(II)-protoporphyrin (IX) Soret band (specific demetallation) ([1]; crude protein lysate)	reduction of Ni(II)-protoporphyrin (IX) Soret band (specific demetallation) ([1]; purified protein)	binding / demetallation (change of Soret band) ([2]; crude and purified protein)	also measured
Hpn: nickel storage protein from H. pylori, SEQ ID NO 8; very small, histidine rich (MAHHEEQHGGHHHHHHHTHHHHYHGGEHHHHHHSSHHEEGCCSTSDSHHQEEGCCHGHHE; listed as Helicobacter pylori)	did not affect the Soret band	–	–	binding / demetallation (change of Soret band) ([2]; crude lysate only): did not affect the Soret band; affinities for nickel (II) ions ([3]; short repeating motifs, reversible binding): micromolar
B. japonicum HypB: nickel chaperone HypB from B. japonicum, SEQ ID NO 3 (protein, listed as Helicobacter pylori) MHEYSVVSSLIALCEEHAKKNQAHKIERVVVGIGERSAMDKSLFVSAFETFREESLVCKDAVLDIVDEKVELECKDCSHVFKPNALDYGVCEKCHSKNVVITQGNEMRLLSLEMLAE	29%	99%	Neither binding nor demetallation was observed	binding / demetallation (change of Soret band) [4]: Neither binding to nor demetallation of these substrates was observed; Ni-binding: Ni (II) ions bound [3, 7]: 9 Ni (II) on 24-; binding / demetallation (change of Soret band) [5]: Neither binding to nor demetallation of these substrates was observed
E. coli HypB: nickel chaperone HypB from E. coli, SEQ ID NO 2 (protein, listed as Escherichia coli) MCTTCGCGEGNLYIEGDEHNPHSAFRSAPFAPAARPKMKITGIKAPEFTPSQTEEGDLHYGHGEAGTHAPGMSQRRMLEVEIDVLDKNNRLAERNRARFAARKQLVLNLVSSPGSGKTTLLTETLMRLKDSVPCAVIEGDQQTVNDAARIRATGTPAIQVNTGKGCHLDAQMIADAAPRLPLDDNGILFIENVGNLVCPASFDLGEKHKVAVLSVTEGEDKPLKYPHMFAAASLMLLNKVDLLPYLNFDVEKCIACAREVNPEIEIILISATSGEGMDQWLNWLETQRCA	17%	83%	Neither binding nor demetallation was observed	Kd of Ni-binding ([3]; N-terminal Ni binding domain): has micromolar; Kd of Ni-binding ([3]; SEQ ID NO: 12 binding sites in the C-terminal domain): subpicomolar; Ni-binding: Ni (II) ions bound ([3]; per monomer): 2 Ni (II) ions per Ni (II) per monomer
HypA: nickel chaperone from H. pylori, SEQ ID NO 1, His-tagged, expressed in E. coli (protein, listed as Bradyrhizobium japonicum, His-tag) MCTVCGCSDGKASIEHAHDHHHDHGHDHDHGHDGHHHHHHGHDQDHHHHHDHAHGDAGLLDCGANPAGQKITGMSSDRIIQVERDILGKNDRLAADNRARFRADEVLAFNLVSSPGAGKTSLLVRAVSELKDSFAIGVIEGDQQTSNDAERIRATGVPAIQVNTGKGCHLDAAMVGEAYDRLPWLNGGLLFIENVGNLVCPAAFDLGEACKIVVFSTTEGEDKPLKYPDMFAASSLMLINKIDLASVLDFDLARTIEYARRVNPKIEVLTLSARTGEGFAAFYAWIRKRMAATTPAAMTAAE	did not display Ni(II)-protoporphyrin (IX) binding or demetallation capabilities	59%	neither binding nor demetallation was observed	Ni-binding: Ni (II) ions bound ([3]; per dimer): 2 Ni (II) ions per Ni (II) per dimer
SlyD: nickel chaperone from E. coli, SEQ ID NO 4 (protein, listed as Escherichia coli) MKVAKDLVVSLAYQVRTEDGVLVDESPVSAPLDYLHGHGSLISGLETALEGHEVGDKFDVAVGANDAYGQYDENLVQRVPKDVFMGVDELQVGMRFLAETDQGPVPVEITAVEDDHVVVDGNHMLAGQNLKFNVEVVAIREATEEELAHGHVHGAHDHHHDHDHDGCCGGHGHDHGHEHGGEGCCGGKGNGGCGCH	12%	no change was observed	only minimal changes to the Soret band were observed	Kd of Ni-binding ([3]; C-terminal metal-binding domain (MBD)): nanomolar Kd.
UreE: nickel chaperone from E. aerogenes, SEQ ID NO 5 (protein, Enterobacter aerogenes) MLYLTQRLEIPAAATASVTLPIDVRVKSRVKVTLNDGRDAGLLLPRGLLLRGGDVLSNEEGTEFVQVIAADEEVSVVRCDDPFMLAKACYHLGNRHVPLQIMPGELRYHHDHVLDDMLRQFGLTVTFGQLPFEPEAGAYASESHGHHHAHHDHHAHSH	remained unchanged	17%	Neither binding nor demetallation	Ni-binding: Ni (II) ions bound ([3]; per dimer): 6 Ni (II) per Ni (II) per dimer
NikR: metalloregulator from H. pylori, SEQ ID NO 7 (protein, listed as Escherichia coli) MRLLHTMLRVGDLQRSIDFYTKVLGMKLLRTSENPEYKYSLAFVGYGPETEEAVIELTYNWGVDKYELGTAYGHIALSVDNAAEACEKIRQNGGNVTREAGPVKGGTTVIAFVEDPDGYKIELIEEKDAGRGLGN	remained unchanged	56%	Neither binding to nor demetallation was observed	Kd of Ni-binding ([3]; 4 Ni (II) per complex, coordinated by His88, His99, His101 & Cys107): nanomolar Kd; Ni-binding: Ni (II) ions bound ([3]; per complex, nanomolar Kd sites): 4 Ni (II) per Ni (II) per complex; Kd of Ni-binding ([3]; up to 10 Ni (II) sites): micromolar Kd
GloA: nickel metalloenzyme from E. coli, SEQ ID NO 6 (protein, listed as Helicobacter pylori) MDTPNKDDSIIRFSVSLQQNLLDELDNRIIKNGYSSRSELVRDMIREKLVEDNWAEDNPNDGSKIAVLVVIYDHHQRELNQRMIDIQHTSGTHVLCTTHIHMDGHNCLETIILKGNSLEIQRLQLEIGGLRGVKFAKLTKASSFEHNE	little or no binding and demetallation	little or no binding and demetallation	little or no binding and demetallation	Ni-binding: Ni (II) ions bound [3, 7]: 2 Ni (II),
myoglobin conjugated to activated cellulose: myoglobin conjugated to activated cellulose, reported by Smith et al. (conjugate, UniProt P68082 2-154, looked up, conjugated to activated cellulose) Myoglobin: GLSDGEWQQVLNVWGKVEADIAGHGQEVLIRLFTGHPETLEKFDKFKHLKTEAEMKASEDLKKHGTVVLTALGGILKKKGHHEAELKPLAQSHATKHKIPIKYLEFISDAIIHVLHSKHPGDFGADAQGAMTKALELFRNDIAAKYKELGFQG	–	–	–	removal of V, Ni porphyrins [6]: up to 22%
